T1: human FcγRIIA-R131 α subunit extracellular domain-6His-GST fusion (human, UniProt P12318 34-217)
T1 construct: also called FcγRIIA-Arg131; not shown: glutathione S-transferase (GST)
T1 sequence: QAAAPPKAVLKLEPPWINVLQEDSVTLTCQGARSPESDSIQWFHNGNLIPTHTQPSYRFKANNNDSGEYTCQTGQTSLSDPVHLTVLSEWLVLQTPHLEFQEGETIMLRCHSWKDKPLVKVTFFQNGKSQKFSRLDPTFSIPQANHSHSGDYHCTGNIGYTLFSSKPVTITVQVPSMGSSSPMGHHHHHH

T2: human FcγRIIB α subunit extracellular domain-6His-GST fusion (human, UniProt P31994 43-217)
T2 construct: not shown: glutathione S-transferase (GST)
T2 sequence: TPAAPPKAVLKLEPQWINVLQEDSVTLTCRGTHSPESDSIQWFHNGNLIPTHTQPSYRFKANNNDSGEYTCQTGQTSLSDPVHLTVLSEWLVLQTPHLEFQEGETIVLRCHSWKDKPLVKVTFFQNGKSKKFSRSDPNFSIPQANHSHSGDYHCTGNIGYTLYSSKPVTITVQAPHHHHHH


Legend:
Assay in all cases: ELISA, IgG:IgE hexamers on receptor-GST
[1] = target: T1, human FcγRIIA-R131 α subunit …
[2] = target: T3, human FcγRIIIA-F158 α subunit extracellular domain-6His-GST fusion (human, UniProt P08637 17-208)
T3 construct: also called FcγRIIIA-Phe158; not shown: glutathione S-transferase (GST)

[3] = target: T2, human FcγRIIB α subunit extracellular …

T3 sequence (P08637 other isoform, or with tags, fused parts or gaps, form in doubt): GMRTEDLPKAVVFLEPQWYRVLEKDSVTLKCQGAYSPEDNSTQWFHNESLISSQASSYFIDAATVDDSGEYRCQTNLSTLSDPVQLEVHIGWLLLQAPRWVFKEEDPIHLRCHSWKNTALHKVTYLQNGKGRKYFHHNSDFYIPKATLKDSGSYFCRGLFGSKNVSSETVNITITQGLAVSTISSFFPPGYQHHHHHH

Binder | ratio to native IgG1 [1] | ratio to native IgG1 [2] | ratio to native IgG1 [3]
E27 IgG1 variant S298(317)V (antibody, also called IG2 218) heavy: not shown light: DIQLTQSPSSLSASVGDRVTITCRASKPVDGEGDSYLNWYQQKPGKAPKLLIYAASYLESGVPSRFSGSGSGTDFTLTISSLQPEDFATYYCQQSHEDPYTFGQGTKVEIKRTVAAPSVFIFPPSDEQLKSGTASVVCLLNNFYPREAKVQWKVDNALQSGNSQESVTEQDSKDSTYSLSSTLTLSKADYEKHKVYACEVTHQGLSSPVTKSFNRGEC | 0.11 | 0.33 | 0.17
E27 IgG1 variant S324(343)N (antibody, also called IG2 213) heavy: not shown light: DIQLTQSPSSLSASVGDRVTITCRASKPVDGEGDSYLNWYQQKPGKAPKLLIYAASYLESGVPSRFSGSGSGTDFTLTISSLQPEDFATYYCQQSHEDPYTFGQGTKVEIKRTVAAPSVFIFPPSDEQLKSGTASVVCLLNNFYPREAKVQWKVDNALQSGNSQESVTEQDSKDSTYSLSSTLTLSKADYEKHKVYACEVTHQGLSSPVTKSFNRGEC | 1.15 | 0.97 | 1.09
E27 IgG1 variant S324(343)E (antibody, also called IG2 216) heavy: not shown light: DIQLTQSPSSLSASVGDRVTITCRASKPVDGEGDSYLNWYQQKPGKAPKLLIYAASYLESGVPSRFSGSGSGTDFTLTISSLQPEDFATYYCQQSHEDPYTFGQGTKVEIKRTVAAPSVFIFPPSDEQLKSGTASVVCLLNNFYPREAKVQWKVDNALQSGNSQESVTEQDSKDSTYSLSSTLTLSKADYEKHKVYACEVTHQGLSSPVTKSFNRGEC | 0.82 | 0.81 | 0.73
E27 IgG1 variant S324(343)K (antibody, also called IG2 215) heavy: not shown light: DIQLTQSPSSLSASVGDRVTITCRASKPVDGEGDSYLNWYQQKPGKAPKLLIYAASYLESGVPSRFSGSGSGTDFTLTISSLQPEDFATYYCQQSHEDPYTFGQGTKVEIKRTVAAPSVFIFPPSDEQLKSGTASVVCLLNNFYPREAKVQWKVDNALQSGNSQESVTEQDSKDSTYSLSSTLTLSKADYEKHKVYACEVTHQGLSSPVTKSFNRGEC | 0.66 | 0.77 | 0.37

Further lines, results first:

ratio to native IgG1 [1] | ratio to native IgG1 [2] | ratio to native IgG1 [3] | Binder
1.1 | 0.96 | 1.06 | E27 IgG1 variant T256(269)G (antibody, also called IG2 176) heavy: not shown light: DIQLTQSPSSLSASVGDRVTITCRASKPVDGEGDSYLNWYQQKPGKAPKLLIYAASYLESGVPSRFSGSGSGTDFTLTISSLQPEDFATYYCQQSHEDPYTFGQGTKVEIKRTVAAPSVFIFPPSDEQLKSGTASVVCLLNNFYPREAKVQWKVDNALQSGNSQESVTEQDSKDSTYSLSSTLTLSKADYEKHKVYACEVTHQGLSSPVTKSFNRGEC
1.24 | 1.19 | 1.3 | E27 IgG1 variant T335(354)E (antibody, also called IG2 194) heavy: not shown light: DIQLTQSPSSLSASVGDRVTITCRASKPVDGEGDSYLNWYQQKPGKAPKLLIYAASYLESGVPSRFSGSGSGTDFTLTISSLQPEDFATYYCQQSHEDPYTFGQGTKVEIKRTVAAPSVFIFPPSDEQLKSGTASVVCLLNNFYPREAKVQWKVDNALQSGNSQESVTEQDSKDSTYSLSSTLTLSKADYEKHKVYACEVTHQGLSSPVTKSFNRGEC
1.03 | 1.13 | 0.89 | E27 IgG1 variant T256(269)N (antibody) heavy: not shown light: DIQLTQSPSSLSASVGDRVTITCRASKPVDGEGDSYLNWYQQKPGKAPKLLIYAASYLESGVPSRFSGSGSGTDFTLTISSLQPEDFATYYCQQSHEDPYTFGQGTKVEIKRTVAAPSVFIFPPSDEQLKSGTASVVCLLNNFYPREAKVQWKVDNALQSGNSQESVTEQDSKDSTYSLSSTLTLSKADYEKHKVYACEVTHQGLSSPVTKSFNRGEC
0.82 | 0.78 | 0.83 | E27 IgG1 variant S324(343)Q (antibody, also called IG2 214) heavy: not shown light: DIQLTQSPSSLSASVGDRVTITCRASKPVDGEGDSYLNWYQQKPGKAPKLLIYAASYLESGVPSRFSGSGSGTDFTLTISSLQPEDFATYYCQQSHEDPYTFGQGTKVEIKRTVAAPSVFIFPPSDEQLKSGTASVVCLLNNFYPREAKVQWKVDNALQSGNSQESVTEQDSKDSTYSLSSTLTLSKADYEKHKVYACEVTHQGLSSPVTKSFNRGEC

— patent US7183387 (Genentech, dated 2007)
